Reference: patent US5858973

Target: IDX-1 (IDX-1/pBJ5 expressed in NIH-3T3) (Rattus norvegicus) (UniProt P52947)
Test: cell_activity

IDX-1 (IDX-1/pBJ5 expressed in NIH-3T3) (Rattus norvegicus), sequence (P52947 other isoform, or with tags, fused parts or gaps): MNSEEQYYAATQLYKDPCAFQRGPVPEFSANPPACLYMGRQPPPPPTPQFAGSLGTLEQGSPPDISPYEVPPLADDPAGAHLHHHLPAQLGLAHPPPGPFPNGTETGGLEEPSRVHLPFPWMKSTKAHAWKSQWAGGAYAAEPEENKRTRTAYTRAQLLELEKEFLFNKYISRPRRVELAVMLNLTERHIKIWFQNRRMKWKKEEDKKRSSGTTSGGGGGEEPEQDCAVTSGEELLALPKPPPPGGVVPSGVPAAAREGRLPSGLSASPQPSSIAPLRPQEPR

| Substance | activity (CAT reporter in NIH-3T3) | activity (parent TKCAT not activated) |
| --- | --- | --- |
| SMS900CAT promoter (-900 to +54) | 4 fold | – |
| SMS(-900/-250)TKCAT | – | 4 fold |
| SMS900(delta-250/-120)CAT promoter | 5 fold | – |
